These results are taken from patent CN113388029A (WUHAN INST VIROLOGY CAS, dated 2021).

For assay [1], the target named is T1, 新型冠状病毒囊膜蛋白受体结合域 WH-RBD-TFc (SARS-CoV-2 S蛋白 RBD 319-541 - 凝血酶位点 - 人源IgG1 Fc) (SARS-CoV-2; human, UniProt P0DTC2 319-541). The assay can be described thus: ELISA, WH-RBD-TFc coated at 4 μg/mL, Fab titrated, detected with HRP anti-FLAG antibody.
In assay [2] the target is T1, 新型冠状病毒囊膜蛋白受体结合域 WH-RBD-TFc (SARS-CoV-2 …). Description: ELISA, WH-RBD-TFc coated at 4 μg/mL, IgG titrated, detected with HRP goat anti-human IgG (Fab).
For assay [3] the target is unchanged. Description: BLI, biotinylated WH-RBD-TFc immobilised (40 μg/ml), IgG titrated in solution (both partners bivalent).

B1: Fab-F1-A3 (Fab, V domains shown)
VH: QVQLVESGGGLVQPGGSLRLSCAASGFTVSSNYMSWVRQAPGKGLEWVSVIYSGGSTYYADSVKGRFTISRDNSKNTLYLQMNSLRAEDTAVYYCARGDGSDDYYYGMDVWGQGTTVTVSS
VL: QSVVTQPPSVSGAQGQRVFISCTGNGANIGMGYDVHWYQQLPGRAPKLLIFGNTNRPSGVPDRFSASRSGTSASLAITGLQTADEADYYCQSYDGNLRASVFGGGTKLTVLG
notes: also called 抗体Fab F1-A3
In assay [1], B1 yielded an EC50 of 4 nM. This counts as single-digit nanomolar.

B2: IgG-F1-A3 (antibody, V domains shown)
VH: QVQLVESGGGLVQPGGSLRLSCAASGFTVSSNYMSWVRQAPGKGLEWVSVIYSGGSTYYADSVKGRFTISRDNSKNTLYLQMNSLRAEDTAVYYCARGDGSDDYYYGMDVWGQGTTVTVSS
VL: QSVVTQPPSVSGAQGQRVFISCTGNGANIGMGYDVHWYQQLPGRAPKLLIFGNTNRPSGVPDRFSASRSGTSASLAITGLQTADEADYYCQSYDGNLRASVFGGGTKLTVLG
In assay [2], B2 gave an EC50 of approximately 0.78 nM. The molecule further had a Kd in assay [3] of 0.013 nM.
